Patent publication US20230159612A1 (published 2023)

B1: TCR-2 (TCR, V domains shown)
Valpha: AQKITQTQPGMFVQEKEAVTLDCTYDTSDPSYGLFWYKQPSSGEMIFLIYQGSYDQQNATEGRYSLNFQKARKSANLVISASQLGDSAMYFCAMSGGYTGGFKTIFGAGTRLFVKA
Vbeta: DSGVTQTPKHLITATGQRVTLRCSPRSGDLSVYWYQQSLDQGLQFLIQYYNGEERAKGNILERFSAQQFPDLHSELNLSSLELGDSALYFCASSGGDGDEQFFGPGTRLTVL
B2: TCR-3 (TCR, V domains shown)
Valpha: GENVEQHPSTLSVQEGDSAVIKCTYSDSASNYFPWYKQELGKRPQLIIDIRSNVGEKKDQRIAVTLNKTAKHFSLHITETQPEDSAVYFCAASRGTGFQKLVFGTGTRLLVSP
Vbeta: DTAVSQTPKYLVTQMGNDKSIKCEQNLGHDTMYWYKQDSKKFLKIMFSYNNKELIINETVPNRFSPKSPDKAHLNLHINSLELGDSAVYFCASSQFWDGAGDEQYFGPGTRLTVT
B3: TCR-1 (TCR, V domains shown)
Valpha: AQKITQTQPGMFVQEKEAVTLDCTYDTSDQSYGLFWYKQPSSGEMIFLIYQGSYDEQNATEGRYSLNFQKARKSANLVISASQLGDSAMYFCAMSGDSAGNMLTFGGGTRLMVKP
Vbeta: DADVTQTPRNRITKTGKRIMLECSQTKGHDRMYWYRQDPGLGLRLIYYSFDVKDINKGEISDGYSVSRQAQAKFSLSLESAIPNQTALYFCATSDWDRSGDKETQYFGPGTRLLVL

Assays:
[1] = target: T1, ASTN1 peptide on HLA-A*02:01 (human); experiment: cytokine release
T1 peptide: KLYGLDWAEL

[2] = target: T2, MAGE-A4 peptide on HLA-A*02:01 (human); experiment: multimer staining
T2 peptide: GVYDGREHTV

| binding result [1] | binding result [2] | Binder |
| --- | --- | --- |
| no recognition |  | B1 |
| no recognition | recognises | B2 |
| no recognition | recognises | B3 |
